This note sets out measurements from patent US20210324028A1 (Pfizer, published 2021).

The chains are these.
T1: human IL-2Rβ (human, UniProt P14784 27-240, limits assumed)
T1 construct: also called hIL-2Rβ; IL-2 receptor beta
T1 sequence (looked up): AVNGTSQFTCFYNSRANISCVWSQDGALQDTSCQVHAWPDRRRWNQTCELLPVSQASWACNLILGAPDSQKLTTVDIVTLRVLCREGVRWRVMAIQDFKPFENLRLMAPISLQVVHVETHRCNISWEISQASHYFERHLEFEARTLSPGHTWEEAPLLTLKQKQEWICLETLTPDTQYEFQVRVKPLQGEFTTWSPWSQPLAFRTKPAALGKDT

B1: hIL-15 V49R/D30A (ligand)
chain: NWVNVISDLKKIEDLIQSMHIDATLYTESAVHPSCKVTAMKCFLLELQRISLESGDASIHDTVENLIILANNSLSSNGNVTESGCKECEELEEKNIKEFLQSFVHIVQMFINTGGGGSGHHHHHHHHGGGLNDIFEAQKIEWHE
B2: hIL-15 V49R/H32K (ligand)
chain: B1 chain with A30D, H32K
B3: hIL-15 V49R/S7P (ligand)
chain: B1 chain with S7P, A30D
B4: hIL-15 V49R/D30Y (ligand)
chain: B1 chain with A30Y
B5: hIL-15 V49R/H32I (ligand)
chain: B1 chain with A30D, H32I
B6: hIL-15 V49R/D30I (ligand)
chain: B1 chain with A30I
B7: hIL-15 V49R/D30S (ligand)
chain: B1 chain with A30S
B8: hIL-15 V49R/D30Q (ligand)
chain: B1 chain with A30Q
B9: hIL-15 V49R/E64N (ligand)
chain: B1 chain with A30D, E64N
B10: hIL-15 V49R/D30T (ligand)
chain: B1 chain with A30T
B11: hIL-15 V49R/E64T (ligand)
chain: B1 chain with A30D, E64T
B12: hIL-15 V49R/H32G (ligand)
chain: B1 chain with A30D, H32G
B13: hIL-15 V49R/D30V (ligand)
chain: B1 chain with A30V
B14: hIL-15 V49R/L69N (ligand)
chain: B1 chain with A30D, L69N
B15: hIL-15 V49R/E64Q (ligand)
chain: B1 chain with A30D, E64Q
B16: hIL-15 V49R/D30F (ligand)
chain: B1 chain with A30F
B17: hIL-15 V49R/N4R (ligand)
chain: B1 chain with N4R, A30D
B18: hIL-15 V49R/L69Q (ligand)
chain: B1 chain with A30D, L69Q
B19: hIL-15 V49R/L69H (ligand)
chain: B1 chain with A30D, L69H
B20: hIL-15 V49R/I68Q (ligand)
chain: B1 chain with A30D, I68Q
B21: hIL-15 V49R/E64A (ligand)
chain: B1 chain with A30D, E64A
B22: hIL-15 V49R/H32E (ligand)
chain: B1 chain with A30D, H32E
B23: hIL-15 V49R/D30N (ligand)
chain: B1 chain with A30N
B24: hIL-15 V49R/D30K (ligand)
chain: B1 chain with A30K
B25: hIL-15 V49R/E64D (ligand)
chain: B1 chain with A30D, E64D
B26: hIL-15 V49R/D30M (ligand)
chain: B1 chain with A30M
B27: hIL-15 V49R/H32L (ligand)
chain: B1 chain with A30D, H32L
B28: hIL-15 V49R/L69Y (ligand)
chain: B1 chain with A30D, L69Y
B29: hIL-15 V49R/E64H (ligand)
chain: B1 chain with A30D, E64H
B30: hIL-15 V49R/D61A (ligand)
chain: B1 chain with A30D, D61A
B31: hIL-15 V49R/I68E (ligand)
chain: B1 chain with A30D, I68E
B32: hIL-15 V49R/L69F (ligand)
chain: B1 chain with A30D, L69F
B33: hIL-15 V49R/D30E (ligand)
chain: B1 chain with A30E
B34: hIL-15 V49R/D30L (ligand)
chain: B1 chain with A30L
B35: hIL-15 V49R/N4T (ligand)
chain: B1 chain with N4T, A30D
B36: hIL-15 V49R/I68G (ligand)
chain: B1 chain with A30D, I68G
B37: hIL-15 V49R/H32A (ligand)
chain: B1 chain with A30D, H32A
B38: hIL-15 V49R/N4P (ligand)
chain: B1 chain with N4P, A30D
B39: hIL-15 V49R/L69R (ligand)
chain: B1 chain with A30D, L69R
B40: hIL-15 V49R/H32D (ligand)
chain: B1 chain with A30D, H32D
B41: hIL-15 V49R/I68W (ligand)
chain: B1 chain with A30D, I68W
B42: hIL-15 V49R/D30R (ligand)
chain: B1 chain with A30R
B43: hIL-15 V49R/D30H (ligand)
chain: B1 chain with A30H
B44: hIL-15 V49R/N4F (ligand)
chain: B1 chain with N4F, A30D
B45: hIL-15 V49R/D30W (ligand)
chain: B1 chain with A30W
B46: hIL-15 V49R/K11M (ligand)
chain: B1 chain with K11M, A30D
B47: hIL-15 V49R/H32W (ligand)
chain: B1 chain with A30D, H32W
B48: hIL-15 V49R/H32T (ligand)
chain: B1 chain with A30D, H32T
B49: hIL-15 V49R/K11F (ligand)
chain: B1 chain with K11F, A30D

Positions count from the first letter of the chain named. Numbers in names are those of the source. Where only a bound is given, the exact number is not on record here.

The target in the first assay is T2, human IL-15Rα (human, UniProt Q13261 31-205, limits assumed).
T2 construct: also called hIL-15Rα; IL-15 receptor alpha
T2 sequence (Q13261 31-205 limits assumed): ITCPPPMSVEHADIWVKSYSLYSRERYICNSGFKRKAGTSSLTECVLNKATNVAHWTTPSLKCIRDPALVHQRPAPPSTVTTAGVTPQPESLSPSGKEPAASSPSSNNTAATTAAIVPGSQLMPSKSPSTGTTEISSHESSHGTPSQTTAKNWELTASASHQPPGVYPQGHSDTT
Put plainly: SPR, steady state.
Consider B1, for which the dissociation constant Kd came to 151 nM.

B2: binding was characterised by a dissociation constant (Kd) of 92.8 nM.

The molecule B3 registered a Kd of over 500 nM.

B4 gave an equilibrium dissociation constant (Kd) of 159 nM.

For the molecule B5, binding was put at a Kd of 113 nM.

B6 displayed a Kd of 197 nM.

As for B7, binding was put at a Kd of 146 nM.

On to B8, for which binding was put at a Kd of 111 nM.

Turning to B9, the dissociation constant (Kd) came to 115 nM.

Regarding B10, binding was put at a Kd of 184 nM.

For B11, the Kd is 141 nM.

Molecule B12 showed a Kd of 249 nM.

B13: the Kd is 153 nM.

B14 showed a dissociation constant (Kd) of 44 nM.

In the case of B15, the affinity, expressed as Kd, was 127 nM.

The molecule B16 displayed a dissociation constant (Kd) of 166 nM.

Take B17: the equilibrium dissociation constant (Kd) was 56.1 nM.

In turn, B18 registered a dissociation constant Kd of about 43.3 nM.

As for B19, the Kd worked out at 54.5 nM.

B20 displayed a Kd of 132 nM.

On to B21, for which the dissociation constant Kd came out at 130 nM.

B22 registered a Kd of 108 nM.

Consider B23, for which the dissociation constant Kd came out at 94 nM.

The molecule B24 showed a Kd of 158 nM.

B25 came in with a Kd of 108 nM.

B26 returned a Kd of 142 nM.

For B27, the dissociation constant (Kd) is 189 nM.

In the case of B28, the equilibrium dissociation constant (Kd) was determined as 137 nM.

For the molecule B29, the equilibrium dissociation constant (Kd) stood at 112 nM.

In turn, B30 yielded a Kd of 78.2 nM.

As for B31, the affinity, expressed as Kd, was 122 nM.

For the molecule B32, the affinity, expressed as Kd, was 106 nM.

In the case of B33, the Kd was 124 nM.

B34 showed a dissociation constant (Kd) of 237 nM.

In the case of B35, the dissociation constant (Kd) was about 88.6 nM.

Take B36: the affinity, expressed as Kd, was 101 nM.

As to B37, the dissociation constant (Kd) turned out to be 152 nM.

In turn, B38 registered a Kd of 356 nM.

As to B39, binding was put at a Kd of 111 nM.

For the molecule B40, the Kd stood at 85.5 nM.

B41 registered a Kd of 93.7 nM.

As to B42, the equilibrium dissociation constant (Kd) stood at 155 nM.

Molecule B43 yielded an equilibrium dissociation constant (Kd) of 121 nM.

In the next assay the target is T1, human IL-2Rβ. Put plainly: SPR, steady state.
As for B1, the Kd amounted to 273 nM.

The molecule B44 returned a Kd of 247 nM.

For B2, binding was characterised by a dissociation constant (Kd) of 149 nM.

In turn, B45 gave a Kd of 321 nM.

For B4, the Kd came to 231 nM.

Take B5: the Kd came to 110 nM.

In turn, B6 gave a Kd of 201 nM.

As for B7, the dissociation constant (Kd) worked out at 249 nM.

Turning to B8, the Kd came out at 197 nM.

With B46, the Kd stood at 180 nM.

As for B9, the dissociation constant (Kd) was over 500 nM.

B10 came in with a Kd of 269 nM.

B11: the Kd was over 500 nM.

The molecule B12 gave a Kd of 459 nM.

The molecule B13 showed a dissociation constant (Kd) of 258 nM.

Turning to B15, the dissociation constant Kd is over 500 nM.

Molecule B16 displayed a Kd of 213 nM.

Take B47: the dissociation constant Kd was 376 nM.

The molecule B21 registered a Kd of over 500 nM.

The molecule B48 had a Kd of 186 nM.

On to B22, for which binding was characterised by a dissociation constant (Kd) of 130 nM.

For the molecule B23, the Kd is 163 nM.

Molecule B24 registered a dissociation constant Kd of 351 nM.

Regarding B25, the Kd worked out at 291 nM.

As to B26, the Kd turned out to be 238 nM.

As to B27, the dissociation constant Kd came out at 159 nM.

As to B29, the dissociation constant (Kd) was over 1000 nM.

For B30, the dissociation constant Kd was over 500 nM.

The molecule B33 registered a Kd of 165 nM.

As for B34, binding was put at a Kd of 277 nM.

Molecule B37 returned a Kd of 218 nM.

For the molecule B49, the Kd was 162 nM.

As to B40, the Kd was 123 nM.

The molecule B42 registered a Kd of 290 nM.

In turn, B43 displayed a Kd of 149 nM.
